# Assay results: patent US20240287172A1 (SCIRHOM, published 2024)
# Residue numbers refer to the chain shown, from its start.
# T1: hiR2-FL-R554A-T7 (human, UniProt Q6PJF5 1-856)
# T1 sequence: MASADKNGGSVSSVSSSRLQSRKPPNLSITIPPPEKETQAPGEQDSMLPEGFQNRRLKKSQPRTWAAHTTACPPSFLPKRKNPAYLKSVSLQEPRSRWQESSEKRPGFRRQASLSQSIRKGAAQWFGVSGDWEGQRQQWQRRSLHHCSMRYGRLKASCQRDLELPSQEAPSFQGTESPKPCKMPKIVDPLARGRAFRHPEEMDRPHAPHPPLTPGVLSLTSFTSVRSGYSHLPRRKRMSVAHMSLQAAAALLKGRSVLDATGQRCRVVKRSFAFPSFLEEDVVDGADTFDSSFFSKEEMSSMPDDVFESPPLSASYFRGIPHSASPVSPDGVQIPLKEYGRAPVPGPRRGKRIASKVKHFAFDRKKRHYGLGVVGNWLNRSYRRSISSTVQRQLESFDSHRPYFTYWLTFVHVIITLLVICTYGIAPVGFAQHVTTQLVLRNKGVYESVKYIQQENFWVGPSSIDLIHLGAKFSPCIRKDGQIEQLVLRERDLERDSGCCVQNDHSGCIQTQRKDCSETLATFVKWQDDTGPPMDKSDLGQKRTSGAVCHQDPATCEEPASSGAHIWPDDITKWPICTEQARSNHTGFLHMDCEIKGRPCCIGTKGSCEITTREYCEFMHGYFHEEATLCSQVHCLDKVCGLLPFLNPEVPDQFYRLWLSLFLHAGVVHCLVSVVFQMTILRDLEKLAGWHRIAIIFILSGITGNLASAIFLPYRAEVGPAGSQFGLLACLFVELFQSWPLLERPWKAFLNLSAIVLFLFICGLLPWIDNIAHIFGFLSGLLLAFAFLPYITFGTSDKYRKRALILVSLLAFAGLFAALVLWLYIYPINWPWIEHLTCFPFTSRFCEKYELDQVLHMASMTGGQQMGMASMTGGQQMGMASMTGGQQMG
# T2: hiR2-FL-K536A-T7 (human, UniProt Q6PJF5 1-856)
# T2 construct: on MEF-DKO cells
# T2 sequence: T1 sequence with K536A, A554R
# B1: antibody 48 (antibody, V domains shown)
# VH: QVQLQQSGTELVRPGTSVKVSCKASGYAFTNYLIEWVKQRPGQGLEWIGVINPGSGFTKYNEKFKGKATLTADKSSSTVYMHLSSLTSEDSAVYFCARGLYRAMDYWGQGTSVTVSS
# VL: DIQMTQSPASQSASLGESVTITCLASQTIATWLAWYQQKPGKSPQLLIYGATTLADGVPSRFSGGGSGTKFSFKISSLQAEDFVSYYCQQLYSTPYTFGGGTKLEIK
# notes: mouse IgG, kappa light chain; also called clone #48; purified antibody 48
# B2: antibody 16 (antibody, V domains shown)
# VH: QVTLKESGPGILQPSQTLSLTCSFSGFSLSTFALGVGWIRQPSGRGLEWLAHIWWDDDKYYNPALKSRLTISKDTSKNHVFLKIANVDTADTATYYCARITTYYYGMDYWGQGTSVTVSS
# VL: DIVLSQSPATLSVTPGDSVSLFCRASQSIGNHLHWYQQESHASPRLLIKYASQSISGIPSRFSGSGSGTDFTLSINSVETEDFGMYFCQQSYNWPLTFGAGTKLELK
# notes: mouse IgG, kappa light chain; also called clone #16; purified antibody 16
# B3: antibody 3 (antibody, V domains shown)
# VH: QVTLKESGPGILQPSQTLSLTCSFSGFSLTTFAMGIGWVRQPSGKGLEWLAHIWWDGEKYNNPVLKSRLTISKDTSKNQVFLRIANVDTPDTATYYCARISSIYYIIDNWGQGTSVTVSS
# VL: B2 VL with S5T, D17H, F22S, G30S, H32N, Q38K, E39K, A42E, A51V
# notes: mouse IgG, kappa light chain; also called clone #3; purified antibody 3
# B4: antibody 5 (antibody, V domains shown)
# VH: QVTLKESGPGILQPSQTLSLTCSFSGFSLSTFGMGVGWIRQPSGKGLEWLAHIWWDDEKYYNSALKSRLTISKATSKNQAFLKIANVDTADTATYYCARISNYGSNYWYFNVWGTGTTVTVSS
# VL: QVVLTQSPALMSASPGEKVTMTCSAGSSVSCMYWYQQKPGSSPRVLIYDTSNLASGVPARFTGSGSGTSYSLTISRMEAEDAASYYCQQWNSYPLTFGAGTKLELK
# notes: mouse IgG, kappa light chain; also called clone #5; purified antibody 5
# B5: antibody 44 (antibody, V domains shown)
# VH: B4 VH with G44E, E58D, S63P, A74D, A80I, A85T, D91E, A98S, S101G, N111D
# VL: QIVLTQSPAVMSASPGEKVTMTCTASSSVYYMYWYQQTPGSSPRLLIYDTSNLASGVPVRFSGSGSGTSYSLTISRMEAEDAATYYCQQWNTYPLTFGAGTKLELK
# notes: mouse IgG, kappa light chain; also called clone #44; purified antibody 44
# B6: antibody 43 (antibody, V domains shown)
# VH: B4 VH with T3A, P42S, H52N, E58D, S63P, A74D, T75A, S101G, N111D
# VL: QIVLTQSPAIMSASPGERVTMTCSANSRISYMYWYQQKPGSSPRLLIYDTSNLASGVPVRFSGSGSGTSYSLTISRMEAEDAATYNCQQWSSYPLTFGAGTKLELK
# notes: mouse IgG, kappa light chain; also called clone #43; purified antibody 43
# B7: antibody 22 (antibody, V domains shown)
# VH: B4 VH with A80V
# VL: B4 VL with C31Y, S84T
# notes: mouse IgG, kappa light chain; also called clone #22; purified antibody 22
# Legend:
# hiR2-FL-R554A-T7 = biological target: T1, hiR2-FL-R554A-T7; assay: FACS on MEF-DKO cells expressing the variant, 3 µg/ml antibody
# Summary of the method: (§1)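 Cells stained with purified antibody at 3 μg/ml for 1 h on ice, then with PE-conjugated goat anti-mouse IgG F(ab′)2 (1:100) for 1 h on ice in the dark. Binding read by flow cytometry; buffer-only staining as control.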
# hiR2-FL-K536A-T7 = biological target: T2, hiR2-FL-K536A-T7; assay: as above
# Summary of the method: as §1
binder,measurement,setting,value
B1,loss of binding vs wild type,hiR2-FL-R554A-T7,≥ 30%
same,loss of binding vs wild type,hiR2-FL-K536A-T7,≥ 30%
B2,loss of binding vs wild type,hiR2-FL-K536A-T7,≥ 60%
B3,loss of binding vs wild type,hiR2-FL-K536A-T7,≥ 60%
B4,loss of binding vs wild type,hiR2-FL-R554A-T7,≥ 60%
same,loss of binding vs wild type,hiR2-FL-K536A-T7,≥ 95%
B5,loss of binding vs wild type,hiR2-FL-R554A-T7,≥ 60%
B6,loss of binding vs wild type,hiR2-FL-R554A-T7,≥ 30%
same,loss of binding vs wild type,hiR2-FL-K536A-T7,≥ 60%
B7,loss of binding vs wild type,hiR2-FL-R554A-T7,≥ 30%
